# Laboratory results: patent publication US20220267369A1
# Columns and labels:
# [1] = target: Protein A ligand of MabSelect Sure resin (GE Healthcare, Chicago, IL); experiment: separation factor on Protein A MabSelect Sure against mAb1; Equil/wash: 10 mM NaPhosphate, pH 6.5
# [2] = target: Protein A ligand of MabSelect Sure resin (GE Healthcare, Chicago, IL); experiment: separation factor on Protein A MabSelect Sure against mAb1; Elute: 20 mM NaAcetate, pH 3.5
# [3] = target: Protein A ligand of MabSelect Sure resin (GE Healthcare, Chicago, IL); experiment: separation factor on Protein A MabSelect Sure against mAb2; Strip: 100 mM acetic acid
# [4] = target: Protein A ligand of MabSelect Sure resin (GE Healthcare, Chicago, IL); experiment: separation factor on Protein A MabSelect Sure against mAb1; High salt wash: 10 mM NaPhosphate, pH 6.5, 0.5M NaCl
# [5] = target: Protein A ligand of MabSelect Sure resin (GE Healthcare, Chicago, IL); experiment: resin slurry plate partitioning on Protein A MabSelect Sure; Strip: 100 mM acetic acid
# [6] = target: Protein A ligand of MabSelect Sure resin (GE Healthcare, Chicago, IL); experiment: separation factor on Protein A MabSelect Sure against mAb1; Strip: 100 mM acetic acid
# [7] = target: Protein A ligand of MabSelect Sure resin (GE Healthcare, Chicago, IL); experiment: separation factor on Protein A MabSelect Sure against mAb2; Elute: 20 mM NaAcetate, pH 3.5
# [8] = target: Protein A ligand of MabSelect Sure resin (GE Healthcare, Chicago, IL); experiment: separation factor on protein A resin against mAb3, loading condition
# [9] = target: Protein A ligand of MabSelect Sure resin (GE Healthcare, Chicago, IL); experiment: resin slurry plate partitioning on Protein A MabSelect Sure; Equil/wash: 10 mM NaPhosphate, pH 6.5
# [10] = target: Protein A ligand of MabSelect Sure resin (GE Healthcare, Chicago, IL); experiment: separation factor on Protein A MabSelect Sure against mAb2; Equil/wash: 10 mM NaPhosphate, pH 6.5
# [11] = target: Protein A ligand of MabSelect Sure resin (GE Healthcare, Chicago, IL); experiment: resin slurry plate partitioning on Protein A MabSelect Sure; High salt wash: 10 mM NaPhosphate, pH 6.5, 0.5M NaCl
# [12] = target: Protein A ligand of MabSelect Sure resin (GE Healthcare, Chicago, IL); experiment: separation factor on Protein A MabSelect Sure against mAb2; High salt wash: 10 mM NaPhosphate, pH 6.5, 0.5M NaCl
# [13] = target: Protein A ligand of MabSelect Sure resin (GE Healthcare, Chicago, IL); experiment: resin slurry plate partitioning on Protein A MabSelect Sure; Elute: 20 mM NaAcetate, pH 3.5
substance,measurement,setting,value
phospholipase B-like 2 (PLBL2) (enzyme),log α (log KP PLBL2 - log KP mAb1),[1],-2
same,log α (log KP PLBL2 - log KP mAb1),[2],0
same,log α (log KP PLBL2 - log KP mAb2),[3],0
same,log α (log KP PLBL2 - log KP mAb1),[4],-2
same,"log KP (partition coefficient, bound/free on resin)",[5],0
same,log α (log KP PLBL2 - log KP mAb1),[6],0
same,log α (log KP PLBL2 - log KP mAb2),[7],-0.3
same,log α (log KP PLBL2 - log KP mAb3),[8],-2
same,"log KP (partition coefficient, bound/free on resin)",[9],0
same,log α (log KP PLBL2 - log KP mAb2),[10],-2
same,"log KP (partition coefficient, bound/free on resin)",[11],0
same,log α (log KP PLBL2 - log KP mAb2),[12],-2
same,"log KP (partition coefficient, bound/free on resin)",[13],0
